The text below walks through data of publication PMC7525815.

For the test, the target named is Fig4-C486S-Citrine (human) (human) (UniProt Q92562). Nature of the test: co-IP.
Sequence of UniProt Q92562 (Q92562 whole entry C486S): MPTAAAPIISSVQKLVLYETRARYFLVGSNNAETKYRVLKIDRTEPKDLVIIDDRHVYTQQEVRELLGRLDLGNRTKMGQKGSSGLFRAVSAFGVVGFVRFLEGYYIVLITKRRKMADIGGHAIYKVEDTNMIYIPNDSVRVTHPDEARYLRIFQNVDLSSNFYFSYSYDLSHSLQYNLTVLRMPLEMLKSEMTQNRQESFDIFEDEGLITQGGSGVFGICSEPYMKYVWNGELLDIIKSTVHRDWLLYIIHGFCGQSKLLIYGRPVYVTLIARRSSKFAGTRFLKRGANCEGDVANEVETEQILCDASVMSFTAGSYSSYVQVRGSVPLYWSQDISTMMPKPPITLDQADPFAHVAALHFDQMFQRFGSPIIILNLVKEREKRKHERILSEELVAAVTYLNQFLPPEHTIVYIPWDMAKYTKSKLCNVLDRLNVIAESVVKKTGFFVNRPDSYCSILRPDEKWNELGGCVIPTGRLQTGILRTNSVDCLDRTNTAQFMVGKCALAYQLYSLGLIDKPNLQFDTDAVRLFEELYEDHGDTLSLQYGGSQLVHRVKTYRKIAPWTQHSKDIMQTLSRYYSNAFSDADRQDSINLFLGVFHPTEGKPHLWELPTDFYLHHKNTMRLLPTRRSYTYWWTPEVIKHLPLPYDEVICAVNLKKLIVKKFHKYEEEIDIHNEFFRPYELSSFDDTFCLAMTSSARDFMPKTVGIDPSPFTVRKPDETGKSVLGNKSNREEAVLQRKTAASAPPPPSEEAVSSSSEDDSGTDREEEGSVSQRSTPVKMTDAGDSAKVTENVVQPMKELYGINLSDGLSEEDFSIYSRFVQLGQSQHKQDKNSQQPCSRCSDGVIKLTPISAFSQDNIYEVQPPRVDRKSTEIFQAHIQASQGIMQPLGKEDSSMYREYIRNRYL

In turn, PIKfyve, Q9Y2I7 1-2098 displayed a fold PIKfyve association over wild-type Fig4 of 9.27 fold.
